# Results as given in the RNAGym collection of RNA variant scans (doi:10.7554/elife.80360).
# B1: CPEB3 Ribozyme (parent)
# chain: GGGGGCCACAGCAGAAGCGUUCACGUCGCGGCCCCUGUCAGAUUCUGGUGAAUCUGCGAAUUCUGCUGU
# Variants of: B1
# Assay: self-cleavage, relative activity (ratio to wild type); higher = more cleavage; co-transcriptional
row,Variant,self-cleavage
1,GGGGGCCACAGCAGAAGCGUUCGCGUCGCGGCCCCUGUCAGAUUCUGGUGAAUCUGCGAAUACUGCUGU [A23G U62A],0.948
2,GGGGGCCACAGCAGAAGCGUUCGCGUCGCGGACCCUGUCAGAUUCUGGUGAAUCUGCGAAUUCUGCUGU [A23G C32A],0.436
3,GGGGGCCACAGCAGAAGCGUUCGCGUCGCGGUCCCUGUCAGAUUCUGGUGAAUCUGCGAAUUCUGCUGU [A23G C32U],0.976
4,GGGGGCCACAGCAGAAGCGUUCGCGUCGCGGCCCCUGUCAGAUUCUGGUGAAUCUGCCAAUUCUGCUGU [A23G G58C],0.97
5,GGGGGCCACAGCAGAAGCGUUCGCGUCGCGGCCCCUGUCAGAUUCUGGUGAAUCUGGGAAUUCUGCUGU [A23G C57G],0.332
6,GGGGGCCACAGCAGAAGCGUUCGCGUCGCGGCCCCUGUCAGAUUCUGGUGAAUCUGUGAAUUCUGCUGU [A23G C57U],0.418
7,GGGGGCCACAGCAGAAGCGUUCGCGUCGCGGCCCCUGCCAGAUUCUGGUGAAUCUGCGAAUUCUGCUGU [A23G U38C],0.946
8,GGGGGCCACAGCAGAAGCGUUCGCGUCGCGGCCCCUGACAGAUUCUGGUGAAUCUGCGAAUUCUGCUGU [A23G U38A],0.897
9,GGGGGCCACAGCAGAAGCGUUCGCGUCGCGGCCCCUGGCAGAUUCUGGUGAAUCUGCGAAUUCUGCUGU [A23G U38G],0.245
10,GGGGGCCACAGCAGAAGCGUUCGCUUCGCGGCCCCUGUCAGAUUCUGGUGAAUCUGCGAAUUCUGCUGU [A23G G25U],0.177
11,GGGGGCCACAGCAGAAGCGUUCGCAUCGCGGCCCCUGUCAGAUUCUGGUGAAUCUGCGAAUUCUGCUGU [A23G G25A],0.156
12,GGGGGCCACAGCAGAAGCGUUCGCGUCGCGGCCCCUGUCAGAUUCUGGUGAAUCUGCGAAUUCUACUGU [A23G G65A],0.752
13,GGGGGCCACAGCAGAAGCGUUCGCGUCGCGGCCCCUGUCAGAUUCUGGUGAAUCUGCGAAUUCUCCUGU [A23G G65C],0.537
14,GGGGGCCACAGCAGAAGCGUUCGCGUCGCGGCCCCUGUCAGAUUCUGGUGAAUCUGCGAAUUCUUCUGU [A23G G65U],0.554
15,GGGGGCCACAGCAGAAGCGUUCGCGUCGCGGCGCCUGUCAGAUUCUGGUGAAUCUGCGAAUUCUGCUGU [A23G C33G],0.262
16,GGGGGCCACAGCAGAAGCGUUCGCGUCGCGGCUCCUGUCAGAUUCUGGUGAAUCUGCGAAUUCUGCUGU [A23G C33U],0.939
17,GGGGGCCACAGCAGAAGCGUUCGCGUCGCGGCACCUGUCAGAUUCUGGUGAAUCUGCGAAUUCUGCUGU [A23G C33A],0.679
18,GGGGGCCACAGCAGAAGCGUUCGCGUCGCGGCCCCUGUCAGAUUCUGGUGAAUGUGCGAAUUCUGCUGU [A23G C54G],0.919
19,GGGGGCCACAGCAGAAGCGUUCGCGUCGCGGCCCCUGUCAGAUUCUGGUGAAUUUGCGAAUUCUGCUGU [A23G C54U],0.964
20,GGGGGCCACAGCAGAAGCGUUCGCGUCGCGGCCCCUGUCAGAUUCUGGUGAAUAUGCGAAUUCUGCUGU [A23G C54A],0.712

row,Variant,self-cleavage
1,GGGGGCCACAGCAGAAGCGUUCGCGUCGCGGCCCCUGUCAGAUUGUGGUGAAUCUGCGAAUUCUGCUGU [A23G C45G],0.971
2,GGGGGCCACAGCAGAAGCGUUCGCGUCGCGGCCCCUGUCAGAUUUUGGUGAAUCUGCGAAUUCUGCUGU [A23G C45U],0.991
3,GGGGGCCACAGCAGAAGCGUUCGCGUCGCGGCCCCUGUCAGAUUCUGGUGAAUCUGCGAACUCUGCUGU [A23G U61C],0.614
4,GGGGGCCACAGCAGAAGCGUUCGCGUCUCGGCCCCUGUCAGAUUCUGGUGAAUCUGCGAAUUCUGCUGU [A23G G28U],0.137
5,GGGGGCCACAGCAGAAGCGUUCGCGUCGCGGCCCCGGUCAGAUUCUGGUGAAUCUGCGAAUUCUGCUGU [A23G U36G],0.227
6,GGGGGCCACAGCAGAAGCGUUCGCGUCGCGGCCCCAGUCAGAUUCUGGUGAAUCUGCGAAUUCUGCUGU [A23G U36A],0.241
7,GGGGGCCACAGCAGAAGCGUUCGCGUCGCGGCCCCCGUCAGAUUCUGGUGAAUCUGCGAAUUCUGCUGU [A23G U36C],0.891
8,GGGGGCCACAGCAGAAGCGUUCGCGUCGCGGCCCCUGUAAGAUUCUGGUGAAUCUGCGAAUUCUGCUGU [A23G C39A],0.785
9,GGGGGCCACAGCAGAAGCGUUCGCGUCGCGGCCCCUGUGAGAUUCUGGUGAAUCUGCGAAUUCUGCUGU [A23G C39G],0.888
10,GGGGGCCACAGCAGAAGCGUUCGCGUCGCGGCCCCUGUCAGAUUCUGGUGAAUCUGCGAAUUCUGAUGU [A23G C66A],0.597
11,GGGGGCCACAGCAGAAGCGUUCGCGUCGCGGCCCCUGUCAGAUUCUGGUGAAUCUGCGAAUUCUGUUGU [A23G C66U],0.964
12,GGGGGCCACAGCAGAAGCGUUCGCGUCGCGGCCCCUGUCAGAUUCUGGUGAAUCUGCGAAUUCUGGUGU [A23G C66G],0.594
13,GGGGGCCACAGCAGAAGCGUUCGCGUCGCGGCCCCUAUCAGAUUCUGGUGAAUCUGCGAAUUCUGCUGU [A23G G37A],0.254
14,GGGGGCCACAGCAGAAGCGUUCGCGUCGCGGCCCCUUUCAGAUUCUGGUGAAUCUGCGAAUUCUGCUGU [A23G G37U],0.22
15,GGGGGCCACAGCAGAAGCGUUCGCGUCGCGGCCCCUCUCAGAUUCUGGUGAAUCUGCGAAUUCUGCUGU [A23G G37C],0.214
16,GGGGGCCACAGCAGAAGCGUUCGCGUCGCGGCCCCUGUCAGAUUCUGGUGAACCUGCGAAUUCUGCUGU [A23G U53C],0.8
17,GGGGGCCACAGCAGAAGCGUUCGCGUCGCGGCCCCUGUCAGAUUCUGGUGAAACUGCGAAUUCUGCUGU [A23G U53A],0.916
18,GGGGGCCACAGCAGAAGCGUUCGCGUCGCGGCCCCUGUCAGAUUCUGCUGAAUCUGCGAAUUCUGCUGU [A23G G48C],0.975
19,GGGGGCCACAGCAGAAGCGUUCGCGUCGCGGCCCCUGUCAGAUUCUGUUGAAUCUGCGAAUUCUGCUGU [A23G G48U],0.972
